The text below walks through data of patent US20250312444A1.

Test in all cases: cell-based or functional assay
In assay [1] the target is T1, cynomolgus monkey RXFP1 receptor (cynomolgus monkey).
T1 sequence: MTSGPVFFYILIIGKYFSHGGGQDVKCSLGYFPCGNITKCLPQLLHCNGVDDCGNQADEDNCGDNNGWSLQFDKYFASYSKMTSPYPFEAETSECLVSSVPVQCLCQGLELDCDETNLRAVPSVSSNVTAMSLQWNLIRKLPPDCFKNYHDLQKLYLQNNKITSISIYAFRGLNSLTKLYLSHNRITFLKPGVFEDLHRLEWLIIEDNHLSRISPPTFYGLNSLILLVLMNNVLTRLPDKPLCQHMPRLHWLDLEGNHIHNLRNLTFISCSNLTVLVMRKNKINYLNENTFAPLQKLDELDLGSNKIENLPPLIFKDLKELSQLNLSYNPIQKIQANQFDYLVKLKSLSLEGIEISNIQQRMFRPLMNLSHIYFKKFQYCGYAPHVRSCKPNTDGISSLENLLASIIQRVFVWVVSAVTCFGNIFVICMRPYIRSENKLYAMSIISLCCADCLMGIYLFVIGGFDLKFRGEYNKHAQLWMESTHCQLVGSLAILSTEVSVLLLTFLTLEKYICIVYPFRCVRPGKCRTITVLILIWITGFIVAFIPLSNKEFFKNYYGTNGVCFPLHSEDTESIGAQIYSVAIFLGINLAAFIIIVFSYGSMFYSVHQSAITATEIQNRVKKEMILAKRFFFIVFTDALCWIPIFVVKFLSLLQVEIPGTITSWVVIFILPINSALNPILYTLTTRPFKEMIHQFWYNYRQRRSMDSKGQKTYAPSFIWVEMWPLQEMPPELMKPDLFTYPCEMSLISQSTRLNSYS

The target of assay [2] is human RXFP2 receptor (human) (UniProt Q8WXD0).
Another assay has as its target dog RXFP1 receptor (dog).
Assay [3] addresses T2, human RXFP1 receptor (human) (UniProt Q9HBX9).
T2 sequence (looked up): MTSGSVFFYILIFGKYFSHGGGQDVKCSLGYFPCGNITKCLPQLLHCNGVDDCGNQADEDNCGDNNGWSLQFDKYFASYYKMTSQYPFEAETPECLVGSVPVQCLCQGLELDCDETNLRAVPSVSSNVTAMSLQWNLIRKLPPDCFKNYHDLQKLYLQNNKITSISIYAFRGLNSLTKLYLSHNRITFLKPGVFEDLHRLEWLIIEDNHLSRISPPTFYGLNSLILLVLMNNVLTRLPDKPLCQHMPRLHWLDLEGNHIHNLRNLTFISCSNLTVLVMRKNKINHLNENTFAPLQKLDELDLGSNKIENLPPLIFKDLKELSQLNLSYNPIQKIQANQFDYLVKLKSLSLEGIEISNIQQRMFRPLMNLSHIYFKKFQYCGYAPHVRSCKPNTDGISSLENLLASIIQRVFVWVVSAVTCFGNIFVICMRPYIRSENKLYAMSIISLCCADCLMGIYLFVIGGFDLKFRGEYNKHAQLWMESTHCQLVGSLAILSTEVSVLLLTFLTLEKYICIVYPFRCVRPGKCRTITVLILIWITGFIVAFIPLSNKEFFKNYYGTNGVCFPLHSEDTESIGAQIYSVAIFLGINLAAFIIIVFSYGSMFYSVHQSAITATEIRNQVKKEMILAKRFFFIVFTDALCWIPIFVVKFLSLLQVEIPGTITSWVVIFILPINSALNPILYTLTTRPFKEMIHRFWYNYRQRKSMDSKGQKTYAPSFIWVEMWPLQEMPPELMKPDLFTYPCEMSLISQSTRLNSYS

The target in assay [4] is T3, mouse RXFP1 receptor (mouse) (UniProt Q6R6I7).
T3 sequence (looked up): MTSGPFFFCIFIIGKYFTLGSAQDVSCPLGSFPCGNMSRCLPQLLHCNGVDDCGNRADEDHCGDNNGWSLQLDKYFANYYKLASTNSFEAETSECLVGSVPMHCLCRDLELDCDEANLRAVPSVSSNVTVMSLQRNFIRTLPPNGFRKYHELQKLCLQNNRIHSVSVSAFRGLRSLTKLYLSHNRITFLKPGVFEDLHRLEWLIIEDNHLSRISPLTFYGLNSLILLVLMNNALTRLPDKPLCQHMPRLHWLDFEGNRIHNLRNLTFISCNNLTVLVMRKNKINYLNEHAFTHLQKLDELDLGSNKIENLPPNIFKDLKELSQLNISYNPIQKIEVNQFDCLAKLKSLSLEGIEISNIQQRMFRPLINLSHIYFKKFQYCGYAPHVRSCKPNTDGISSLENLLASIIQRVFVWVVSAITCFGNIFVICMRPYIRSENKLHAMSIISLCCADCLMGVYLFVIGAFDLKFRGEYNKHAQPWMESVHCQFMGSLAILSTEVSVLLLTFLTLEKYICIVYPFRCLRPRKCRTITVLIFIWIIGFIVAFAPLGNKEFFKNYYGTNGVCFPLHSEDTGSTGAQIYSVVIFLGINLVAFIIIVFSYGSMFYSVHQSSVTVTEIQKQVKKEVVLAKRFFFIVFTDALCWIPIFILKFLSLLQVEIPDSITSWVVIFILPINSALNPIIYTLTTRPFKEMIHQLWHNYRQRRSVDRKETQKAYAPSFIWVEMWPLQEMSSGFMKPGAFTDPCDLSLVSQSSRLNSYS

Another assay addresses T4, rat RXFP1 receptor (rat) (UniProt Q6R6I6).
T4 sequence (looked up): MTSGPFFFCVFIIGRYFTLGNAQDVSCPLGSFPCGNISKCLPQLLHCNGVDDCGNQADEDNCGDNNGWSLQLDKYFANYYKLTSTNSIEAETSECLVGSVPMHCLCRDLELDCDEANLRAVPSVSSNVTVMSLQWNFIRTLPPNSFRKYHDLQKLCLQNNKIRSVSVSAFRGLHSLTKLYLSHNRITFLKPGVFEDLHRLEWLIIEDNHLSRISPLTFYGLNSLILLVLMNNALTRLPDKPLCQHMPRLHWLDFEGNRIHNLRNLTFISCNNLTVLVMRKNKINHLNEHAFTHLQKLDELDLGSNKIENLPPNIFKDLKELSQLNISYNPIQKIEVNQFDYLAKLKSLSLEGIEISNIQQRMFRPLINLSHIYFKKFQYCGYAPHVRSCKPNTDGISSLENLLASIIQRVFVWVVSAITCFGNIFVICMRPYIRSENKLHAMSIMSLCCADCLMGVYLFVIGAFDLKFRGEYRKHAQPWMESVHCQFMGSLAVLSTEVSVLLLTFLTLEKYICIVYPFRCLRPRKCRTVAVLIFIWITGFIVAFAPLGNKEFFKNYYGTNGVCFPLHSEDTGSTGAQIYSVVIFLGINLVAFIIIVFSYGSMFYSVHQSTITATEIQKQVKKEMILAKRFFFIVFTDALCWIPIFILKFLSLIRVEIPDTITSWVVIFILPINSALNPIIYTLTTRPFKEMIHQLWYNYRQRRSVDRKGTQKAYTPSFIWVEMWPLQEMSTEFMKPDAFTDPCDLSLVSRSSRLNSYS

B1: 0054 (protein)
chain: EVQLLESGGGLVQPGGSLRLSCAASGRYIDETAVAWFRQAPGKGREFVAGIGGGVDITYYADSVKGRFTISRDNSKNTLYLQMNSLRPEDTAVYYCAARPGRPLITSKVADLYPYWGQGTLVTVSSGGGGQGGGGQGGGGQGGGGQGGGGQSWMEEVIKLCGRELVRAQIAICGMSTWSGGGSGGSGGGQLYSALANKCCHVGCTKRSLARFC
As to B1, the EC50 (nM), cAMP production in CHO-K1 cells with receptor overexpression in assay [1] was found to be 21.8 nM; in assay [2] it was 1350 nM; in the assay with dog RXFP1 receptor (dog), 3040 nM; in assay [3], 25.6 nM; in assay [4], 23.4 nM; with rat RXFP1 receptor (rat), 10.5 nM. This molecule displayed an EC50 (nM), cAMP production in THP1 cells, 1% HSA in assay [3] of 15.8 nM. In assay [3], this molecule had an EC50 (nM), cAMP production in THP1 cells, without HSA of 10.3 nM.
